What was measured:
[1] = target: L17C APP-eGFP (human APP751 with leucine 17 of the Aβ sequence mutated to cysteine, fused to eGFP) (human); experiment: FRET or BRET; homoFRET by tr-FAIM under TIRF excitation (s polarized light), at the plasma membrane; objective 60x NA 1.49; living HEK293 cells, 37°C, 5% CO2
[2] = target: L17C APP-eGFP (human APP751 with leucine 17 of the Aβ sequence mutated to cysteine, fused to eGFP) (human); experiment: FRET or BRET; homoFRET by time-resolved fluorescence anisotropy imaging (tr-FAIM), epifluorescence excitation, objective 60x NA 1.49, xNA = 1.2; living HEK293 cells, 37°C, 5% CO2
[3] = target: enhanced Green Fluorescent Protein (eGFP), cytosolic; experiment: as above

Row | depolarization time associated with energy transfer (homoFRET) [1] [ns] | depolarization time associated with energy transfer (homoFRET) [2] [ns] | proportion of molecules in interaction (homoFRET) [3] [%] | Substance
1 | 5.4 | 2.4 |  | L17C APP-eGFP (human APP751 with leucine 17 of the Aβ sequence mutated to cysteine, fused to eGFP) (natural protein)
2 |  |  | 6.6 | enhanced Green Fluorescent Protein (eGFP), cytosolic

— article PMC3433432
